Laboratory results reported in PMC6607443 (2019).

What follows are binders tested against dynein light chain LC8 (UniProt P63167 1-89) (assay: ITC).
dynein light chain LC8, sequence (P63167 whole entry): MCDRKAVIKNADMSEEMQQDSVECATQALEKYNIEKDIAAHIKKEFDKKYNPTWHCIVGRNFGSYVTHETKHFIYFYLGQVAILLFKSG
In the case of DDHSREKGTQTSGD [SLC9A2 peptide], the Kd is reported as 2.2 µM. With PAPPSYSDKGVQTPSK [ZFPM1 peptide] the Kd was 1.6 µM. Work on YDSMDHLDKQTQTPKT [CCL2 peptide] yielded a Kd of 4.7 µM. NQSFTTASTQTPPQ [CAPRIN2 peptide] gave a Kd of 2.6 µM. QDFMKHLDKKTQTPKL [CCL7 peptide] showed a Kd of 2.8 µM. In the case of SEIHGISRMTQTPQ [RavL peptide], the Kd is reported as 8 µM. With PRATAEFSTQTPSP [bassoon (BSN) peptide, modified version with the TQT motif near the C-terminus] the Kd was 6.3 µM. For SSSTRSIDTQTPSV [GLCCI1 peptide], the Kd was 4.9 µM. PVLTSATGTQTSPA [MUC3A peptide] showed a Kd of 4.5 µM. Binder ARAGRSVSTQTGSM [CIZ1 peptide] has a Kd of 0.8 µM. Binder APMSCDKSTQTPSP [BCL2L11 peptide] has a Kd of 0.2 µM. In the case of EKELRHIGTQISSD [ICE1 peptide], the Kd is reported as 3.6 µM. For YGCTRHQSVQTEDG [MAST1 peptide], the Kd was 1.7 µM. HPETQDSSTQTDTS [SPAG5 peptide] was tested, and the Kd was 1.3 µM.
